Patent publication EP4552657A1, “RADIOPHARMACEUTICAL COMPLEXES AND COMBINATIONS” (priority 2023, dated 2025)

T1: human recombinant DLL3 antigen (Homo sapiens, UniProt Q9NYJ7)
T1 sequence (Q9NYJ7 27-618): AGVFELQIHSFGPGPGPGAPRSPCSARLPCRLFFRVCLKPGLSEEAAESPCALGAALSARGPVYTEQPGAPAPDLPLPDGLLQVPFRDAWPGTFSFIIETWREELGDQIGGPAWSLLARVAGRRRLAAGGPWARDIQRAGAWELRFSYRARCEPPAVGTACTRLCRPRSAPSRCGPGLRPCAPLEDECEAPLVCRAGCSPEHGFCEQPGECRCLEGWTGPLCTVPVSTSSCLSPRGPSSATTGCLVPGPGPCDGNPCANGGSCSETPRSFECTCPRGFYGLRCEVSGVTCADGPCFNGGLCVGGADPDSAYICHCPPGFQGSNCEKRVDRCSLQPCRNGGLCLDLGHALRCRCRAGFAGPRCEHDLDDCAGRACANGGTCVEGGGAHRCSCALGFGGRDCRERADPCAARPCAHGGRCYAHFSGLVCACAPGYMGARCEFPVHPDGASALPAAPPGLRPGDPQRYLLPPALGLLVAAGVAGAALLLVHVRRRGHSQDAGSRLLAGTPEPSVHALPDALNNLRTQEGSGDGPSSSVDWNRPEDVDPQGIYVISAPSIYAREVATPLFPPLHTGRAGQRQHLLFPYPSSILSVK

T2: recombinant human DLL3 (Homo sapiens, UniProt Q9NYJ7)
T2 sequence (Q9NYJ7 27-618): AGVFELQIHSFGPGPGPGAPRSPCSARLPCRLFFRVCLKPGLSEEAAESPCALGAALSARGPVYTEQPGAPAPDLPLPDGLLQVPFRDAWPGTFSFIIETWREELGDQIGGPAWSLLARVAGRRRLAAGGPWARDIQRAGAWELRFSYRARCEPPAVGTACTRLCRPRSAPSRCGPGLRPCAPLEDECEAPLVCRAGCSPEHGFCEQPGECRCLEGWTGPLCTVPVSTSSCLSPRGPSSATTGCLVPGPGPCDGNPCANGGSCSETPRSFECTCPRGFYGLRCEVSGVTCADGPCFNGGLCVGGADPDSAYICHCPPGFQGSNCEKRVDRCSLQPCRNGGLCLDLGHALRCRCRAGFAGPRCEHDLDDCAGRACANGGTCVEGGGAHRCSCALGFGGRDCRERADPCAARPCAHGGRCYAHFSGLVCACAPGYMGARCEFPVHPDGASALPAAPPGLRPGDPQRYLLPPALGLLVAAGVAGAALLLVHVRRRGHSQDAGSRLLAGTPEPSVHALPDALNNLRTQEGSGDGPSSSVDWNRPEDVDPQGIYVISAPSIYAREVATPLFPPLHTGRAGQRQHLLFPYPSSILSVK


Columns and labels:
[1] = target: T1, human recombinant DLL3 antigen; experiment: ELISA, binding potency to human recombinant DLL3 antigen; details: compared to unconjugated Rovalpituzumab
Description: The relevant antigen was immobilized on ELISA plate by absorption. The plate was washed (PBS with 0.1% Tween 20) and incubated with blocking buffer (PBS + 3% BSA) for 2 h ± 1 h to reduce unspecific binding. Relevant antibodies and ACCs diluted in assay buffer (PBS with 0.05% Tween 20 + 1.5% BSA). The blocking buffer was discarded, and the antibodies and ACCs and controls were applied in triplicates to the plate according to a plate set-up defined in each protocol. After incubation for 1 h ± 30 min at RT, the plate was washed. A horse radish peroxidase (HRP)-conjugated secondary antibody binding specifically to the primary mAb (anti-human IgG-HRP) was added to the plate. After incubation for 1 hour ± 30 min at RT, the plate was washed. A chromogenic substrate (2,2'-azino-bis (3-ethylbenzothiazoline-6-sulphonic acid) (ABTS)), for HRP leading to the formation of a green color was added to the plate and used for detection. The absorbance of the colored reaction product was measured with an absorbance plate reader, e.g. EnVision 2103 Multilabel Reader from Perkin Elmer, or iMark Microplate Absorbance Reader from Bio-Rad.
Absorbance against the log of the antibody concentration was plotted on the GraphPad Prism software.
The binding potency of Rovalpituzumab-macropa, Rovalpituzumab-DOTA was compared to unconjugated Rovalpituzumab by using an ELISA assay. […]

recombinant human DLL3 = target: T2, recombinant human DLL3; experiment: Immunoreactive fraction (IRF), binding to DLL3-coated beads; details: 20 kBq/µg
Description: Shortly after completion of the radiolabeling, the binding was assessed by measuring the fraction of radiolabeled antibody-chelator conjugate bound to relevant antigen coated magnetic beads (Thermo Fisher Scientific). In short, beads were placed in 2 mL Eppendorf tubes in 90 µL buffer (PBS/0.1% Tween 20/1% BSA). The radiolabeled compounds were diluted to 5 Bq/µL in buffer and 50 Bq were added to each bead-containing tube. The binding lasted for 60 min while shaking at 750 rpm at room temperature. After completion of the binding step, magnet (DynaMag-2) was used to separate the beads from […] supernatant. The radio activities in the supernatant and in the beads of each sample were measured using a high purity Germanium detector (Ortec). […] Total binding was defined as [(activity in beads […])/ (total activity)] × 100.

Molecule	EC50 [1]	max absorbance value [1]	amount of DLL3-coated beads at which the maximum binding was achieved (recombinant human DLL3) [µg]	maximum binding (IRF) (recombinant human DLL3; 10 µg of DLL3-coated beads) [%]
Rovalpituzumab-DOTA (conjugate, chains of the INN, looked up, DOTA chelator conjugate) VH: QVQLVQSGAEVKKPGASVKVSCKASGYTFTNYGMNWVRQAPGQGLEWMGWINTYTGEPTYADDFKGRVTMTTDTSTSTAYMELRSLRSDDTAVYYCARIGDSSPSDYWGQGTLVTVSS VL: EIVMTQSPATLSVSPGERATLSCKASQSVSNDVVWYQQKPGQAPRLLIYYASNRYTGIPARFSGSGSGTEFTLTISSLQSEDFAVYYCQQDYTSPWTFGQGTKLEIK	increased EC50	Slightly lower max absorbance value	–	–
Ac-225-macropa-Rovalpituzumab (conjugate, chains of the INN, looked up, macropa chelator, actinium-225) VH: QVQLVQSGAEVKKPGASVKVSCKASGYTFTNYGMNWVRQAPGQGLEWMGWINTYTGEPTYADDFKGRVTMTTDTSTSTAYMELRSLRSDDTAVYYCARIGDSSPSDYWGQGTLVTVSS VL: EIVMTQSPATLSVSPGERATLSCKASQSVSNDVVWYQQKPGQAPRLLIYYASNRYTGIPARFSGSGSGTEFTLTISSLQSEDFAVYYCQQDYTSPWTFGQGTKLEIK	–	–	10	86
